From patent US20160040149A1, “Compositions Having Dicamba Decarboxylase Activity and Methods of Use” (priority 2013, published 2016)

B1: 46 (protein, listed as Rhodococcus opacus)
chain: MARIITLEEHYLDPAIAAASAPLARELSPDFAAAYDPASGLSYTPSAQVLQDLGQRRIADMDTHGISMQVLSCLTTQQVPADVAPDLVRAANDTAAAAVRAHPDRFAAFAALPTTAPDAAATELARCIDDLGFVGTMINGRTDGEFLDAPRFDPILATAAARNVPIYLHPAVPPRATSDSNYAGLAPLVTARLQTSAWGWHQETAVHFLHLVLSGVLDRYPNLQFILGHWGEMIPFYLDRLDEALPQAVTNLDRTISDYVRENVYITPSGMFNQAQLQYCVETLGVDRILYSVDYPFIGNDGAVSFLDEANLPDEAKHQIAHQNTEKLLGL
B2: 45 (protein)
chain: MANDDLAEVIAAHPDRFAGFAALPMRDPQAAAVELQRAVGTHGFCGAMINGLIEGRFLDDPAFAPLLSTAADLGVPLYLHPSFPPPQVAEIYFGGLAPVLGDLLATAGWGWHAETALHVLRLVATGVFDRLPELWVIVGHMGEMIPFALARIDTVLSPVAQLRQPVAQYFQTNVWFTTSGYTTFPPLQCALSTVGIDRLIFSVDYPYTDNTSARALLDTAPISPVDREKLAHGTVEALLRV
modifications: Mycobacterium sp
B3: 56 (protein)
chain: MAKIICLEEHYLDSELGRACMPVALEQAPFLGDWGKTVADGHNPDRSRPQIEKNALINAKGADLGSRRLRDMDEAGITLQILSVGGFPQLAPEDEAVTLNTAANDRLAEAVRNHPDRFAAFATLPWAQPKDAENELVRAVEKLGFKGALLNGRPSSCFLDHPDYDSLLSRFNKLNVPLYLHPGLPLKSVQQAYFTGFSAEVNARLSMFGWGWHHEAGIHLLRLMLSGAFDKYPNMQVISGHWGEMLPFWLQRLDDSLPLAATGLSRTLTRTFQEHVYVTPSGMLTLPHFKFIYELMGAERILFSVDYPYQTLDGVKTFIDSLPVNKAEKEAIAFRNAERLLGITA
modifications: Enterobacter aerogenes
B4: 55 (protein, listed as Serratia sp.)
chain: MAKIICLEEHTLDKALVMASMPAALEQAPFLSDWGKTVTDGNLPDRSRPQIEKNDLINIKGADIGRGRLDDMDVAGITMQVLSVGGFPHLISAAEGVDLNRAANDRLADAVNAHPDRFAAFATLPWAQPDSAEKELERAVKELGFKGALLNGRPSTHFLDHPDYDGLLARFNALGVPLYLHPGLPVRSVQQAYYGGFSDEVTARLSMFGWGWHHEAGIHLLRLILSGAFDKYPNLQVISGHWGEMLPFWLQRLDDSLPQAATGLRRTIAQTFKEQVYVTPSGMLTLPHFQFIYALLGAERIIFSVDYPYQTLDGVKAFIQSLPVPEEAKEAIAFRNAERLLGLTS
B5: 47 (protein, listed as Serratia odorifera)
chain: MAKIICLEEHTLDKALVMASMPAALAQAPFLSDWGKTITDGNLPDRSRPQIEKNDLINVKGADIGRGRLDDMDEAGITMQVLSVGGFPHLISAAEGVDLNRAANDRLANAVNAHPDRFAAFATLPWAQPDAAEKELERAVKELGFKGALLNGRPSIHFLDHPDYDGLLARFNALGVPLYLHPGLPVRSVQQAYYSGFSDEVTARLSMFGWGWHHEAGIHLLRLILSGAFDKYPNLQVISGHWGEMLPFWLQRLDDSLPQAATGLRRTITQTFREQVYVTPSGMLTLPHFQFIYALLGAERILFSVDYPYQTLDGVKAFIQSLPVPEEAKEAIAFRNAERLFGLTS
B6: 58 (protein)
chain: MARVIALEEHYATTEFLRGPGTWLASRPGIVEPAGDLGDGRIAAMDQAGVDLAVLSLAAPGVEQLDPDDAVRLARDCNDQLAAAVRRYPDRLAGFATVPTSAPDRAADELERAVRGLGFPGAVINGHSRGRYLDDPFFEPVLARAAELQAPIYLHPTIPPAGVIESSYAGFAEPVTFALATVGWGWHINTATHALRMILGGVFDRHPSLQMIIGHMGEATSFMLPRFDATLKPELTGLNHPVSSYLRENFHYTFANFNDHATYANLVAQVGIERVAFSADYPFGSMVDARAFLDGLPLSDDERAAISHRNAEKLLGL
modifications: Mycobacterium colombiense
B7: 49 (protein, listed as Streptomyces sp.)
chain: MAKIIALEEHFSDPAVAKAGAARARALSPGFAASYSPASGLPYSPSPEVLENLAEKRLADMDAGGITMQVLSGLGAQTVPADVAPALVAGSNDKAAAAVRAHPDRFAAFAALPTATPEAAVAELDRSVNELGFVGTLIMGRTEGEFLDAPRFEPILARAAALKVPVFLHPGVPPREITDSNYAAGLPTGIGTRLQTAAWGWHQETAVHFLHLVHSGVLDRYPDLQFILGHWGEMIPFYLDRVDEALPQRATGLDRSFHEYFRENVYLAPSGMWSQAQLRFCLETVPLERIVFAVDYPFIGNEGAVPFLEKAELPQADKRKIAHENAERLLGL
B8: 54 (protein, listed as Streptomyces sp.)
chain: MAKIIALEEHFSDPAVAKAGAARAQALSPGFAASYSPASGLPYSPSPEVLENLAEKRLADMDAGGITMQVLSGLGAQTVPADVAPALVAGSNDKAAAAVRAHPDRFAAFAALPTAAPEAAVAELDRSINELGFVGTLIMGRTEGEFLDAPRFEPILARAAALKVPVFLHPGVPPREITDSNYAAGLPTGIGTRLQTAAWGWHQETAVHFLHLVHSGVLDRYPGLQFILGHWGEMIPFYLDRVDEALPQRATGLDRSFHEYFRENVYLAPSGMWSQAQLRFCLETVPLERIVFAVDYPFIGNEGAVPFLEKAELPEADKRKIAHENAERLLGL
B9: 52 (protein, listed as Streptomyces sp.)
chain: MAKIIALEEHFSDPAVAKAGAARAQALSPGFAASYSPASGLPYSPSPEVLENLAEKRLADMDAGGITMQVLSGLSAQTVPADVAPALVAGSNDKAAAAVRAHPDRFAAFAALPTAAPEAAVAELDRSVNELGFVGTLIMGRTEGEFLDAPRFEPILARAAALKVPVFLHPGVPPREITDSNYAAGLPTGIGTRLQTAAWGWHQETAVHFLHLVHSGVLDRYPDLQFILGHWGETIPFYLDRVDEALPQRATGLDRSFHEYFRENVYLAPSGMWSQAQLRFCLETFPLERIVFAVDYPFIGNEGAVPFLEKAELPEADKRKIAHENAERLLGL
B10: 51 (protein, listed as Mycobacterium gilvum)
chain: MARVIAIEEHYAHPGLQPAEALANLRKHPQLARIQDKLEDLGAGRLADMDAAGIDMQVLSHTVPGAEALPAAQAVDVVRQTNDDLAEVIAAHPDRFAGFAALPMRDPQAAATELQRAVGTLGFCGAMINGLIEGRFLDHPDFTPLLSTAADLGVPLYLHPSFPPPQVAQIYFGGLPPVLADLLATAGWGWHAETALHVLRLISTGVFDRLPELRVIVGHMGEMIPFALARIDTVLSPMTELRQPVAQYFQTNVWFTTSGYTTFPPLQCALSTVGIDRLIFSVDYPYTDNASARALLDTAPISPVDREKLAHATVEALLRV
B11: 50 (protein, listed as Streptomyces sp.)
chain: MARIVTLEEHWTDPAVTAAGMPNLLDHVPGYAAAFDPDTGMPYPRHPELLEDLGAARIADMDRHGITTQVLSLVNTFLPADVAPRLTAAANDAMAAAVEAFPGRFAAFATLPTAVPGAAADELRRCVGELGFVGTMIMGRTDGEFLDQPRFDPILRAASDLSVPVYLHPAPPPVAVSEASYAGGLSPAVSAAFRLAAWGWHQETAVHLLHLVLAGVLDRYPGLQFVLGHWGEFIPFYLDRLDESMPRRMTGLDRTFREYFRDNVFITPSGMFSQAQLRYCADTVGTDRIIHSVDFPMLGNEGAVSFLTDSHLSREDQEKIAHGNADALLGLG
B12: 48 (protein, listed as Amycolatopsis mediterranei)
chain: MASMKLYGLEEHFVTADVIEAWRRRDPGLAEPMMKWAVASDITPALLDVDGGRIAAMDDAGIDTTVLSLTTPGLQNLDAAEAVALQAPTNDLIAAAVRRHPGRFQGFATLATSAPAAAADELRRAVTELGLNGALVNANSRGRALDAPGFWDIYEAAEDLRAPVYLHPGVPVPAVTEAYYRGFGEPVNSMLATGAFGWHYDAGLTILRMIVAGVFDRFPGLQVILGHWGEVVLFYLDRVAAMDKLTALRRPIAEYFRSNIFITPGGISSHKYLRWSLETVGVERIMYASDYPFNTERAGSARRFLDTAPVDEAGRERIAYRNWEELIAGIRR
B13: 59 (protein)
chain: MAPSVIDAHAHFLPGSLVTALRSRSDAPDIRTDSNGGESFGIYRTRMPYGRTYDALDVRLARMDELGVDRQILSLPGLFGIDSRPVSQALPLVRAFNDGVADLVRKHPDRFSGIAALPLADLDAAQEEYRRARGDLGLSGLILPGDTFVSVAAAERVRPLFELAATIGGLIFVHPGPLPDETGSAVDAPAPHTDSVVHRRVTVDIQNRMTEVMVTLALTDFLAPYPSVPVQVANLGGSLPFVIERMDHVYALRNPEAPPPSLSLRSLYVDAASLGPRAIALAAEVYGADRVLFGSDYPIFDDGRCLDAVRQTRLSPDARALIAGGNAARMLTQT
modifications: alpha proteobacterium
B14: 53 (protein, listed as Granulicella tundricola)
chain: MARTITLEEHFVTDSFLRATGAYDKPAPPWLAQLQPKLLDLGDGRIAAMDEAGIDLQVLSLAALGFDALDAATATPLVHDINDELAAAVRANPTRLAAFASLALKDPQSAARELERAIQKLGFRGVLLDGTTDGLFLDDPRFTPVFEAAVALNVPIYLHPAPPPESVFDTYFTGLPEGVGQMLSIAGWGWHAETALHTLRLITNGVFDRYPTLQLIIGHMGEMLPMALARTSKALSHAARLRQPVAAYFQSNIHLTTSGYFTQPPLRCALDVVGIDRLMFSIDYPFSANTLGRDYLTELEQTLTPEDLAKLIHRNAESLLNLS
B15: 57 (protein)
chain: MAKLICVEEHVLDPAVGAATQSLVRAEAPYLPDWGSRVLDGRHVADRSRPHVIAPSESARKALEMGEPRLADMDAASIDMQVLSYGGFPQLLPAAQAIDLNRAANDKLALAAQAHPARFAGFATLPWQAPEAAARELERAVKQLGLKGALINGRPGDTFLDDARYAPILAAFDELKVPLYVHPGLPLPAVQAPYYGGFERELSARLAMFAWGWHNEAGIQVVRMLLAGVFDRHPRLQLISGHWGEMVPFFLQRLEDSIPQEASGLQRPIVQTYREHVYISPSGMFTLPHFQFIHALMGAQRILYSIDYPYQSLDGARAFIERLPISDTDKALIAHRNAERLLHL
modifications: Collimonas fungivorans

Assay: Saturation mutagenesis of SEQ ID NO:109: dicamba decarboxylation activity of point mutants (CO2 released), fold of backbone (Tables 7, 8, Megatable 1)
Conditions: decarboxylation activity (CO2 released) of point mutant vs unmutated backbone protein; backbone SEQ ID NO: 109

First: B1
Second: B2
The “Fold Activity” value of the first is lower: 1.1 fold for the first, 1.7 fold for the second.

First: B3
Second: B4
The “Fold Activity” value of the first is lower: 1.3 fold for the first, 1.5 fold for the second.

First: B5
Second: B6
The “Fold Activity” value of the first is lower: 1.2 fold for the first, 1.5 fold for the second.

First: B7
Second: B8
The “Fold Activity” value of the first is higher: 2 fold for the first, 1.4 fold for the second.

Going from B9 to B10, the “Fold Activity” value falls from 1.9 fold to 1.7 fold.

Going from B11 to B12, the “Fold Activity” value falls from 1.7 fold to 1.5 fold.

Compared with B13, B14 is higher in “Fold Activity” value: 0.9 fold for the first, 1.6 fold for the second.

In the case of B15, the “Fold Activity” value is reported as 2 fold.
